According to patent publication US20080138847A1, “Bcl-2 family member and BH-3 only proteins for use in development of peptidomimetics” (priority 2004, published 2008):
Positions count from the first letter of the chain named. Names may count otherwise. Where no end group is shown, it is not given here.

T1: CED-9 (residues 68-251) (Caenorhabditis elegans, UniProt P41958 68-251)
T1 construct: range 68-251; Form used in isothermal titration calorimetry
T1 sequence (looked up): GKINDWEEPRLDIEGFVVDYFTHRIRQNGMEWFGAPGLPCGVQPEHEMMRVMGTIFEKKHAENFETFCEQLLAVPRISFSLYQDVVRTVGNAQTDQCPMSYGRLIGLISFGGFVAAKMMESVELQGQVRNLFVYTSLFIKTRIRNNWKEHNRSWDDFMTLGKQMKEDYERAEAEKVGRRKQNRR

T2: CED-9 protein (residues 1-251) (Caenorhabditis elegans, UniProt P41958 1-251)
T2 construct: range 1-251
T2 sequence (looked up): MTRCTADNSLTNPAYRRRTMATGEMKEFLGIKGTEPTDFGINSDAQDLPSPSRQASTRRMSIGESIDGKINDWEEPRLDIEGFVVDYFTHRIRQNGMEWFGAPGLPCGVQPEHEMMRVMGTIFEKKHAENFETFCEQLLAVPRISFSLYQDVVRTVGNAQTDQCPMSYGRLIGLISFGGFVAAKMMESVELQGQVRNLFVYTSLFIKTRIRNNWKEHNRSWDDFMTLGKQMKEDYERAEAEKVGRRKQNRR

T3: CED-9 (construct not stated) (Caenorhabditis elegans, UniProt P41958 1-251, limits assumed)
T3 construct: Also stands for the worm's own CED-9 in the in vivo rows
T3 sequence (looked up): T2 sequence (looked up)

T4: CED-9 (residues 68-251) (Caenorhabditis elegans, UniProt P41958)
T4 construct: made in house
T4 sequence (P41958 68-251): T1 sequence (looked up)

B1: GST-EGL-1 N-terminal half (residues 1-45) (other, UniProt O61667 16-60, looked up)
chain: {GST}-MSNVFDVQSSVFYNEKNMFYSSSQDFSSCEDSSQFADDSGFFDDS
notes: GST placed at the N-terminus by the printed name 'GST-EGL-1'; also called N-terminal half (residues 1-45) of EGL-1; not shown: glutathione S-transferase (GST) fusion partner
B2: GST-EGL-1 fragment double mutant (mut2, G55E/F65A) (other, UniProt O61667 60-102, looked up)
chain: SEISSIGYEIESKLAAMCDDADAQMMSYSAHASDRSLFHRLLD
modifications: also: GST fusion in pull-down, placement and linker not given here
notes: GST fusion in the pull-down; also called EGL-1 (G55E/F65A); EGL-1 double mutant; not shown: glutathione S-transferase (GST) fusion partner
B3: GST-EGL-1 fragment quadruple mutant (mut4, G55E/L58A/F65A/M69A) (other, UniProt O61667 60-102, looked up)
chain: B2 chain with L14A, M25A
modifications: also: GST fusion in pull-down, placement and linker not given here
notes: GST fusion in the pull-down; not shown: glutathione S-transferase (GST) fusion partner
B4: full-length EGL-1 protein: full-length pro-apoptotic BH-3 Only protein EGL-1 of C. elegans (protein, UniProt O61667 1-106, looked up)
chain: MLMLTFASTSSDLLPMSNVFDVQSSVFYNEKNMFYSSSQDFSSCEDSSQFADDSGFFDDSEISSIGYEIGSKLAAMCDDFDAQMMSYSAHASDRSLFHRLLDFFAF
modifications: full-length
notes: full-length pro-apoptotic BH-3 Only protein EGL-1 of C. elegans

Assays:
CED-9 (residues 68-251) [1] = biological target: T1, CED-9 (residues 68-251); experiment: isothermal titration calorimetry (ITC)
Source text: (§1) The EGL-1/CED-9 complex adopts a compact, globular fold, resembling a single folding unit. CED-9 comprises 7 α helices, with the central hydrophobic helix α5 surrounded by 6 helices and several surface loops. A 27-amino acid fragment of the EGL-1 protein (residues 47-73) forms a single amphipathic α helix, packing against CED-9 helices α2, α3, α4, α5, and α7 over an extended hydrophobic surface cleft. Residues N- or C-terminal to the EGL-1 helix were disordered in the crystals and thus are not involved in binding to CED-9.

[2] = biological target: T2, CED-9 protein (residues 1-251); experiment: binding test of GST-EGL-1 fragments with CED-9 (1-251)
Method: This example describes the characterization of EGL-1/CED-9 interactions. To determine the mechanism of CED-9 recognition by EGL-1, the EGL-1/CED-9 interaction was characterized. Various fragments of the GST-EGL-1 protein were evaluated for their abilities to interact with the CED-9 protein (residues 1-251). […] In contrast, the C-terminal half (residues 45-87 or 45-91) formed a stable complex with CED-9.

[3] = biological target: T2, CED-9 protein (residues 1-251); experiment: EGL-1 missense mutants tested for interaction with CED-9 (Example 1)
[4] = biological target: T3, CED-9 (construct not stated); experiment: GST-mediated pull-down
Source text: This example describes the biochemical and functional analysis of EGL-1/CED-9 interactions. To corroborate the structural analysis, mutations on the interface residues of EGL-1 were examined for their potential to weaken or disrupt its binding to CED-9. Various mutant EGL-1 fragments were purified as fusion proteins with glutathione S-transferase (GST) and their interactions with CED-9 were investigated using a GST-mediated pull-down assay. […] Strikingly, substitution of Gly55 by a negatively charged glutamate residue was not sufficient to abolish interaction with CED-9.

CED-9 (residues 68-251) [5] = biological target: T4, CED-9 (residues 68-251); experiment: isothermal titration calorimetry (ITC) of EGL-1 fragments binding to CED-9; parameters: species or system C. elegans; details: binding to CED-9 (residues 68-251), read-out: dissociation constant
Source text: as §1

[6] = tested on: ced-1 (e1735); egl-1 (n1084 n3082) animals; experiment: in vivo cell killing: cell corpses in four-fold transgenic embryos after heat-shock expression of EGL-1 fragments; parameters: species or system C. elegans; details: anterior head region of four-fold transgenic embryos; heat-shock promoter expression
Method: In this example, the ability of EGL-1 mutants to disrupt the CED-4/CED-9 complex was tested. […] To examine this scenario, constructs were injected into ced-1 (e1735); egl-1 (n1084 n3082) animals that direct expression of various EGL-1 fragments under the control of the C. elegans heat-shock promoters. Cell corpses were scored in the anterior head region of four-fold transgenic embryos after the heat-shock treatment.

| Molecule | Kd (CED-9 (residues 68-251) [1]) | binding result [4] | further results |
| --- | --- | --- | --- |
| full-length EGL-1 protein (from UniProt O61667 16-106) | 6.7 nM | – | – |
| SSIGYEIGSKLAAMCDDFDAQMMSY (peptide, UniProt O61667 63-87, looked up, range 63-87; Used in ITC) [EGL-1 fragment (residues 48-72)] | 6.4 nM | – | – |
| B1 | – | – | binding result [2]: no binding |
| B2 | – | no binding | binding result [3]: no binding |
| B3 | – | no binding | – |
| B4 | – | – | Kd (CED-9 (residues 68-251) [5]): 6.7 nM; cell killing (cell corpses induced) [6]: induced robust cell killing |
